According to patent US20150315621:

Target: Aspergillus terreus LovB: Lovastatin nonaketide synthase

B1: Aspergillus terreus LovG: Esterase (protein)
chain: HHHHHHMRYQASPALAKAPRALLCIHGAGCSPAIFRVQLSKLRAALREDFEFVYVTAPFPSSAGPGILPVFADLGPYYSWFESSSGNNNNGPSVGERLAAVHDPIRRTIVDWQTQHPHIPIVGAIGFSEGALVTTLLLWQQQMGRLPWLPRMSVAMLICPWYQDEASQYMRNEVMENHDDDHDSKDTEWQEELVIRIPTLHLQGRDDFALAGSKMLVARHFSPREAQVLEFAGQHQFPNRPRDVLEVINRFRKLCVTVQTLE
- offloaded aberrant products 8-10 from LovB in vitro in the absence of LovC (HPLC at 330 nm, LC-MS): Upon addition of LovG at equimolar concentration to LovB, the in vitro assay mixture turned significantly more yellow and the extract contained high amounts of offloaded products 8-10, in addition to 6 and 7
- turnover rate of dihydromonacolin L acid (2), in vitro with equimolar (10 µM) LovB, LovC and LovG: the turnover rate of dihydromonacolin L acid (2) was estimated to be ˜0.12 hour^-1
